Laboratory results as given in patent US8530235B2, “Medium that supports culture of an oocyte and modulation of granulosa cell apoptosis” (Adelaide Research & Innovation Pty Ltd., priority 2005, dated 2013).

Legend:
Bcl-2 and Bax proteins = test: Western blot of Bcl-2 and Bax expression in OOX cumulus cells; type: cell-based, Bovine; details: OOX 24 h; for ratio of Bcl-2 to Bax: 132 ng/ml GDF-9, 10% v/v BMP-15 or 35 DO/well
Method: Following culture treatments, OOX complexes were lysed in […] RIPA lysis buffer (10 mM Tris [pH 7.4], 150 mM NaCl, 1 mM EDTA, 1% Trinton X-100 and stored at −80° C., for detection of apoptotic proteins using the sensitive Enhanced Chemiluminescence (ECl) Advance system (Amersham Biosciences, Ontario, Canada). Thawed lysates were mixed with 4× loading buffer containing 100 mM Dithiothretol (DTT) and subjected to SDS-PAGE (12% polyacrylamide gel). Proteins were subsequently electrotransferred to nitrocellulose membranes (Hybond-ECl, Amersham life Science, Ontario, Canada.) in 25 mM Tris-192 mM glycine containing 20% methanol. Blots were blocked in 20 mM Tris (pH 7.6) containing 13.7 mM NaCl, 1% Tween-20, and 2% blocking agent (provided in ECl Advance Kit) for 1 hr at RT, then incubated overnight with Bcl-2 or Bax rabbit polyclonal antibodies (0.35 μg/ml; Santa Cruz Biotechnology, Calif., USA) at 4° C., followed by incubation with horseradish peroxidase-conjugated anti-rabbit antibody (1:200 000; Silemus laboratories, Melbourne, Australia). Images were then scanned using a flat bed scanner and the intensity of Bcl-2 and Bax bands in each sample was quantitated by the ImageJ Imaging System Software version 1.3 (National Institutes of Health, USA).
This experiment was conducted to confirm that treatment effects on CC apoptosis, as assessed by TUNEL, are concomitant with changes in expression of key proteins regulating cell death and survival. OOX were cultured for 24 h untreated, or treated with 132 ng/ml GDF-9, 10% v/V BMP-15, co-cultured with 35 DO/well, or 10% 293H (control conditioned medium), and then subjected to Western blot for analysis of Bcl-2 and Bax expression.

cumulus-oocyte complexes = test: Study II: oocyte developmental competence after IVM, IVF and embryo culture (cleavage, blastocyst); type: cell-based, Bovine
Method: Bovine ovaries were collected from local abattoirs and transported to the laboratory in warm saline (30-35° C.). Cumulus-oocyte complexes (COC) were aspirated from antral follicles (2 to 8 mm diameter) using an 18-gauge needle and a 10-ml syringe containing ˜2 ml aspiration media (Hepes-buffered Tissue Cultured Medium-199; TCM-199, ICN Biochemicals, Irvine, Calif., USA) supplemented with 50 μg/ml kanamycin, 0.5 mM sodium pyruvate, 50 μg/ml heparin and 4 mg/ml fatty acid-free bovine serum albumin (FAF-BSA; ICPbio Ltd, Aukland, NZ). Intact COC with compact cumulus vestments greater than five cell layers and evenly pigmented cytoplasm were selected under a dissecting microscope and washed twice in Hepes-buffered TCM-199 and once in Hepes-TCM199 supplemented with 10% fetal calf serum (FCS) (Invitrogen, Carlsbad, Calif.). Base media for oocyte maturation was Bovine VitroMat (Cook Australia, Eight Mile Plain, Qld, Australia), and is a medium based on the ionic composition of bovine follicular fluid and also containing 100 μm glycylglutamine (Glutamax; Gibco Invitrogen, Carlsbad, Calif., USA), 100 μm N-acetyl-1-cysteine, 100 μm 2-mercaptoethylamine, 1% v/v non-essential amino acids (100×; Gibco Invitrogen), 2% v/v essential amino acids (50×; Gibco Invitrogen), 4 mg mL-1 fatty acid-free BSA and 5.6 mm glucose. […] (Puregon, Organon, Oss, Netherlands). Complexes were cultured pre-equilibrated […] drops overlaid with mineral oil and incubated at 39° C. with 5% CO2 in humidified air for 24 hour. […]
Recombinant mouse GDF-9 and recombinant ovine BMP-15 were produced in-house as previously described (Kaivo-Oja et al. (2003) J. Clin. Endocrinol Metab 88:755-762; McNatty et al. (2005) Reproduction 129:473-480) using transfected 293 human embryonic kidney cell lines (293H). Recombinant proteins were partially purified using hydrophobic interaction chromatography (HIC), as recently described (Hickey et al., (2005) Biol Reprod on line), and their concentrations were then estimated by Western blot (Kaivo-Oja et al., 2003 3) J. Clin. Endocrinol Metab 88:755-762). Control conditioned medium (293H) was also produced from untransfected 293H cells and purified by HIC.
All experiments were carried out using frozen semen from the same bull of proven fertility. Briefly, one straw of semen stored in liquid nitrogen was rapidly thawed in a water bath for one minute. The semen sample was layered on top of a discontinuous (45%:90%) Percoll gradient (Amersham Bioscience) and centrifuged at room temperature for 20-25 mins at 700 g. The supernatant was removed and the sperm pellet was washed with […] Bovine Vitro Wash (Cook Australia, Eight Mile Plains, Qld, Australia) and centrifuged for a further 5 minutes at 200 g. spermatozoa were resuspended with TVF medium (Bovine Vitro Fert, Cook Australia), then added to the fertilization media drops (Bovine Vitro Fert, Cook Australia, supplemented with 0.01 mM heparin, 0.2 mM penicillamine and […] hypotaurine) at a final concentration of 1×10^6 spermatozoa/ml. COCs were inseminated at a media density of […] of IVF medium per COCs for 24 h, at 39° C. in 6% CO2 in humidified air.
Cumulus cells were removed by gentle pipetting 23-24 h post insemination and five presumptive zygotes were transferred into 20 μl drops of pre-equilibrated Cook Bovine Cleave medium (modified SOFaa, Cook Australia) and cultured under mineral oil at 38.5° C. in 7% O2, 6% CO2, balance N2, for five days (day 1 to day 5).
On Day 5, embryos were transferred in groups of […] drops of pre-equilibrated Bovine Vitro Blast (Cook Bovine Blast medium; Cook Australia) at 38.5° C. overlaid with mineral oil and cultured to Day 8. Embryos were assessed for quality at Day 8 according to the definitions presented in the Manual of the International Embryo Transfer Society and were performed independently and blinded by an experienced bovine embryologist. […]

[1] = Study V: pregnancy outcome after transfer of blastocysts to pseudo-pregnant females; type: in vivo, mice; details: oocytes matured with 200 ng/ml GDF9, Day 15 of pregnancy
Method: Oocytes (n=1106) were then fertilised and cultured to the blastocyst stage in G1.2/G2.2 medium at 37° C. in 6% CO2 5% O2. Blastocysts were pooled and either transferred to pseudo-pregnant Swiss females or differentially stained. Pregnancy outcome was assessed on Day 15 of pregnancy.

[2] = 1st REP, COC IVM 24 h, 175 ng/ml GDF-9, 10% BMP-15, 10% 293H

B1: GDF-9: Recombinant mouse GDF-9 produced in-house in transfected 293H cells, partially purified by HIC (protein, UniProt Q07105 307-441, looked up)
Growth/differentiation factor …: GQKAIRSEAKGPLLTASFNLSEYFKQFLFPQNECELHDFRLSFSQLKWDNWIVAPHRYNPRYCKGDCPRAVRHRYGSPVHTMVQNIIYEKLDPSVPRPSCVPGKYSPLSVLTIEPDGSIAYKEYEDMIATRCTCR
ratio of Bcl-2 to Bax (Bcl-2 and Bax proteins): no effect | BLACTOCYST RATE (cumulus-oocyte complexes; [2]): 50% | CLEAVAGE RATE (cumulus-oocyte complexes; [2]): 88% | BLACTOCYST RATE (cumulus-oocyte complexes; 2nd REP): 58% | CLEAVAGE RATE (cumulus-oocyte complexes; 2nd REP): 92% | BLACTOCYST RATE (cumulus-oocyte complexes; 3rd REP): 35% | CLEAVAGE RATE (cumulus-oocyte complexes; 3rd REP): 84% | BLACTOCYST RATE (cumulus-oocyte complexes; 4th REP): 36% | CLEAVAGE RATE (cumulus-oocyte complexes; 4th REP): 83% | BLACTOCYST RATE (cumulus-oocyte complexes; AVERAGE, control COC 41.5%): 45% | CLEAVAGE RATE (cumulus-oocyte complexes; AVERAGE, control COC 84%): 87% | fetal development ([1]; vs 21%, P=0.04): 39% | implantation ([1]; vs 77%, not affected): 83%

B2: BMP-15: Recombinant ovine BMP-15 produced in-house in transfected 293H cells, partially purified by hydrophobic interaction chromatography; dosed as % v/v (protein, UniProt Q9MZE2 269-393, looked up)
Bone morphogenetic protein 15: QAGSIASEVPGPSREHDGPESNQCSLHPFQVSFQQLGWDHWIIAPHLYTPNYCKGVCPRVLHYGLNSPNHAIIQNLVSELVDQNVPQPSCVPYKYVPISILLIEANGSILYKEYEGMIAQSCTCR
ratio of Bcl-2 to Bax (Bcl-2 and Bax proteins): alter the ratio of Bcl-2 to Bax in favour of cell survival | expression of Bax protein in CC (Bcl-2 and Bax proteins; 10% v/v BMP-15 or 35 DO/well): barely detectable | expression of Bcl-2 protein in CC (Bcl-2 and Bax proteins; 10% v/v BMP-15 or 35 DO/well, compared to untreated or GDF-9): significantly (P<0.001) higher | BLACTOCYST RATE (cumulus-oocyte complexes; [2]): 58% | CLEAVAGE RATE (cumulus-oocyte complexes; [2]): 76% | BLACTOCYST RATE (cumulus-oocyte complexes; 2nd REP): 63% | CLEAVAGE RATE (cumulus-oocyte complexes; 2nd REP): 90% | BLACTOCYST RATE (cumulus-oocyte complexes; 3rd REP): 50% | CLEAVAGE RATE (cumulus-oocyte complexes; 3rd REP): 80% | BLACTOCYST RATE (cumulus-oocyte complexes; 4th REP): 50% | CLEAVAGE RATE (cumulus-oocyte complexes; 4th REP): 85% | BLACTOCYST RATE (cumulus-oocyte complexes; AVERAGE, control COC 41.5%): 55% | CLEAVAGE RATE (cumulus-oocyte complexes; AVERAGE, control COC 84%): 83% | number of oocytes that reached the blastocyst stage post insemination (cumulus-oocyte complexes; alone or in combination with GDF9, compared with GDF-9 alone or no supplement): more effective
